The values below come from the DeepSol protein solubility set.

The nature of this data set: soluble on expression in E. coli; label from the status in PepcDB or PDB records.
Regarding “MSRKTLVDTPITPQSSIGHILRAQFALQNQLPEDKPKTIGFNEAENMKLYELYSGRREEYHSTRPSGQRNEEVPMDTLAREWATEITSMGFAERTPAQIKQRIRDMRKFSRKHAHKLGITNMNAGQELERYAEFSWAEPKRRSRGPVPDWMSGLAEIMMSEQDTKADDADSASDIMEATYGPKAKRLKLQRTEMQLHQLQLHLDMKQRELKQEREKEEGNGNDEQEEREKRDVSPETLLIEKKLRLADAKLHTEHLKQQVSIP”, the “soluble on expression in E. coli” value was “not soluble”.

In the case of “MSLTELLNNQDYRKEALKEIIRELHRGKSVEEVKARFNELIKDVAPAEISLMEQALINEGLPVEEVQRLCDVHAAVFKESLERAPQPETIPGHPVHTFKEENRALEDLMIREIQPLLAELRRANPDVEKDLAIKLAEKLNLLQDVNKHYSRKENLLFPYLEKYQIVGPPKVMWGVDDEIRDLLKEARDLAVNYVPDKKEELITRTEAALAKIKEMIFKEERILFPMALETLTEDEWYRIMLDSASIGYCLIEPREDWRPAQVKLDQKETVASEETRGYIKFATGILTPREISLIFDHLPVDITFVDKDNVVKYFSNTRERIFTRSRAVIGRRVENCHPPASVQVVEKLIADFKSGRKDREAFWLHLGDKYVFIQYFAVRDEKGDFAGTLEVTMDLKPLQAISGEKRIMDEGHHHHHH”, the “soluble on expression in E. coli” value is reported as “soluble”. Then “MEVPSLFTNFFAVNNPDSPPARQKTKLRELEHRFWQEHLPGDDDDHSTAISSLAIVTGLTKAQVSRISIAFATLADLPELKALQQKLYHLDLSRLITISNELAGINPDNLAGADAILTEYLTATSPNQILPSPASIGRKIKEIRDLLDDARATGSRGTQDDSSFGVTFSPDGTAEIGASVDAVDGHIINDAVTQHAKKNDLTYGEAFSDILRNNIQVKVVLNLYTAKDLANAPVWASGIGWLDAKTGTFWSEKANKEQDMDAAAKISTDKHDPPPALRDALIGRDGTCRFPGCSVPALKTQADHRIPYEEGGETCLGGIGCLCQHHHNMKTDGRVTYLLDPFSGIIVWLMGDGTWAVSEPNGPLNPKNARWAQTVAQHRARHHKRWVKEDAKLEHHHHHH”, with “not soluble”; and “MGSDKIHHHHHHMKTTSVPVAYMPLIDAAPLIVGQEMGFAEAEGISLELIAAPSWSSVRDMLAFGRVDLAHLLSVVPVAMALRLGGVTNPMSAVSVLSVNGNVIGVSRALEARLRAAGYPFDFADAAAAGAALAKVTQGGLTIGVPFPFSMHVELLQVWRSSTPLASVPLDIRTVPPPMMAQALASGEIDAFCVGEPWGSVSVENGAGALLLPGRAIWSFAPEKVLATRADWAETEPHLLGRVMRTVWRAGKWLADPSSRTAAAELLSRPRWLDVPAELVDRALTGELAISPDGEVRDVPGFLEFHHGAANFPWRSQGKWIATQLATRTGMDPSAAARQAADVFRSDLYRAALDGTGADMPGASEKLEGSLIHPTAVASTRGQMILDTDVFFDGRIFDPTT”, with “not soluble”. Take “MGSDKIHHHHHHMKNYKIVAIGDNVCDKYLSRGKMYPGGQCINTCVYGKMNGAETAYIGKYGNDEVAECVQNTLKEIGIDDSHCRHYEGENGFALVTLKNADRVFLGSNKGGIAKEHSYNFDENDFEYIKKFDLIYTNLNSYIEDNLKELHATGVPIAYDFSMRWTDEYLLKVCPYIDVAILSCAHLTAEEREKEMKKVQNYGVKIVLGTIGEDGSYVLYNGDFLYTSAIMAANIIDTMGAGDSYFSTFLCSLLQTSETGKLVEGTKESMKIRLESAMKSGAIFAANVCGMEGAFGYGVPIQGKTEI”: the “soluble on expression in E. coli” value was “not soluble”. “GSHMPSRRMLHTMIRVGDLDRSIKFYTERLGMKVLRKWDVPEDKYTLVFLGYGPEMSSTVLELTYNYGVTSYKHDEAYGHIAIGVEDVKELVADMRKHDVPIDYEDESGFMAFVVDPDGYYIELLNEKTMMEKAEADMKEQGTA”: the “soluble on expression in E. coli” value is on record as “soluble”. Regarding “MGSDKIHHHHHHMIIDINMHHLPEDLFTNEKILDGFLSTAPRSYGEIASLGTIPETGKRQIILEKPKGYQNLNYVEGDYSLEAKLQAMDDNGVDKAILRVPVWQEWLKVDTCKIVNDNAAEMCKRSAGRLYATACVPPWGGKDNLYELERCVKDLGMVGVQLACHYGQLYLDDEAFKPYMKVLNELNVPVVVHHTPLPVYWQSVYEYTNLRRELGRIIDQATAVGRELFSGMFEEFPNLKFIHTMFGGNWFANYNLLMPHKGKKEEAMLRLDISESDRIKMYLKNNIYFDMTHPASWGKDQVECAIKVCGADHVLFGSSFPVFYNWMSQGIECVKSLDITEKERELITSGNAIRLFKLDV”, the “soluble on expression in E. coli” value is “not soluble”.

As to “MGSDKIHHHHHHMTTDSSNNRTISSKSTLSSKSIINVGPFTPHIEFIGQQQTPVIIIDDFGADLSQLIDIAIDDSQFNQDQGSYYPGQRAPLPKQYVIDVINAVYQLIYDTYKVPHSLRLKPQQCVFSVIDKPAQRLLPLQCMPHFDTPDPHYFAILHYLNNGDHGDTGFFRHNTTQYEQISPHNIDHYFNQAQPVVDAQQTLMPDYVVDSNDHYTLYHQVHYRPNRLVIYPGNLLHSTLVNPVTDIDSSPKTGRLTANIFINFK”, the “soluble on expression in E. coli” value is on record as “not soluble”. “DDDDEEEDDFVYFNFNKEKEEKNKNSIHPNDFQIYNSLKYKYHPEYQYLNIIYDIMMNGNKQSDRTGVGVLSKFGYIMKFDLSQYFPLLTTKKLFLRGIIEELLWFIRGETNGNTLLNKNVRIWEANGTREFLDNRKLFHREVNDLGPIYGFQWRHFGAEYTNMYDNYENKGVDQLKNIINLIKNDPTSRRILLCAWNVKDLDQMALPPCHILCQFYVFDGKLSCIMYQRSCDLGLGVPFNIASYSIFTHMIAQVCNLQPAQFIHVLGNAHVYNNHIDSLKIQLNRIPYPFPTLKLNPDIKNIEDFTISDFTIQNYVHHEKISMDMAA”: the “soluble on expression in E. coli” value was “soluble”. As for “MSLCELSYLNAVVMLKAQRGGNSGLYFGSMTTFITSGGLEISPAGAHIVHAESPEGELLFVSSASQYGEGNAIRGGVPIIAPWFGGLLGLDPAHGWAKRSAWDVTEHDGQIHAEYGRDGLLLDIRANSTKNGFEITLRAYNDTDEARTVQLAFHPYFKVDDVEKIEVRGLDGVDILNRLNNEVETQDGPVTFDGEFDRIALGTPVVRIFDTDRIITIEGDGHDSTVVWNPGESRASTVADIGEGEWRDFVCVEPALLGADQKGVRVAPGQSVTVGMQVSVEKRAEGHHHHHH”, the entry is “soluble”; as for “MSLANAFGKEKNIKEFYALKGVSFEISKGECVGIIGHNGAGKSTLLKLLTGVAFPTSGEIEINGRLASMLELGSGFNPELTGMENIYFNGSLNGLTKEEIDGKLKDILEFADIGNFIEQPVKNYSSGMFARLAFAVAINVDPDILIVDEILSVGDVGFQVKCMEKFNEFKKKGKTILYVSHGLGTVKKFCDRAIWLQKGEVVDDGNSVIVVERYYNLNFNPANIEQLKDHKSDIINSIAVKSNTKNVEYLEKLDLEVEYDLISNDLKDPNIVLEFRKTDYEPGTTRGNDQFVCGINSKDNIKNIPFNLGVNKLKVSLNKVNLVAGVYYIDFVLRDGEEEVYRKINGYSFTLNDKYRGEGFLILGHSWGNEGHHHHHH”, “not soluble”. Regarding “MSLDNMAKRQTKDIETIIQKIYYAKNRHLGTYTPLKNNSELEEINNYIYDLFESNEQLIHSIEHTERRLRDIQLKEIERQFQPHFLFNTMQTIQYLITLSPKLAQTVVQQLSQMLRYSLRTNSHTVELNEELNYIEQYVAIQNIRFDDMIKLHIESSEEARHQTIGKMMLQPLIENAIKHGRDTESLDITIRLTLARQNLHVLVCDNGIGMSSSRLQYVRQSLNNDVFDTKHLGLNHLHNKAMIQYGSHARLHIFSKRNQGTLICYKIPLSRGNVDVEGHHHHHH”, the “soluble on expression in E. coli” value was “not soluble”. As for “MSSNPLRFFVLTIFPHIISCYSEYGIVKQAIKKGKVEVYPIDLREFAPKGQVDDVPYGGLPGMVLKPEPIYEAYDYVVENYGKPFVLITEPWGEKLNQKLVNELSKKERIMIICGRYEGVDERVKKIVDMEISLGDFILSGGEIVALAVIDAVSRVLPGVLSEPQSIQEDSFQNRWLGYPVYTRPREYRGMKVPEELLSGHHKLIELWKLWHRIENTVKKRPDLIPKDLTELEKDILNSILSGKSFKEWLKEHKHLLLEHHHHHH”, the entry is “not soluble”; as for “RSRLVQFQKNTDEPMGITLKMNELNHCIVARIMHGGMIHRQGTLHVGDEIREINGISVANQTVEQLQKMLREMRGSITFKIVPSYREF”, “soluble”; as for “MKSFIKIHKQDNVLLALRYIQKGERLHAYGVSIEVKDDIKRGHKIALQSIKENDSIVKYGFPIGHASQDISIGEHIHVHNTKTNLSDIQLYSYTPRFDENPYSNENRTFKGFRRENGDAGVRNELWIVPTVGCVNGIAEKMLQRFVRETGDIAPFDNVLVLKHQYGCSQLGDDHENTKQILLNAIRHPNAGGVLVLGLGCENNELARMKEALQDVNLKRVKFLESQSVTDEMEAGVALLKEIHEAAKGDKREDIPLSELKIGLKCGGSDGFSGITANPLLGRFSDYLIAQGGSTVLTEVPEMFGAETILMQRAANEEVFHKIVDLINDFKQYFIKHDQPVYENPSPGNKAGGISTLEDKSLGCTQKAGISPVTDVLKYGEVLKTKGLTLLSAPGNDLIASSALAAAGCQIVLFTTGRGTPFGTFVPTVKVATNTELYEAKPHWIDFNAGLLAEDDVHEEYVLREFIHYMIEVASGQLVNHEKNDFKELAIFKSGVTL”, “not soluble”. On to “MSLCLSAQRLGEEPRVNSTGRYSGPMRVLHLASEVFPFSRSGGLGDVLGALPAVQARLGEDAEVTVLSPWYASLQGEPQELWRGEAWGEQAWLGELRQDGVRYLFLGLNEFQRPGLYHPDDVERFCAFGRAALPALDAVGVTPDVLHGHDWQAGLVVAHARLRGLRTAFSVHNLQYQGRWNLHEAAGWTGLPDWTFGPDGVEFFGDLNLMKAGLNFAGHVTTVSPTYAQEITTPQYGEGLEGLLVRLTHEGRLSGILNGLDQDRWNPRTDPDIAAYSDPAGKAGAVKALRQEFGLDDAPILATVSRLADQKGMDLLITALPELVRDWNVVVLGGGDPLLEAALTGWANHPRVAFASGMNEPLAHRIYAGAHAFAMPSRFEPCGLSQLIAMRYGTLPIVRETGGLADTVPPEVGFRFADATAPAFLQACREAQAAFQDPAQWQTRATRAMSLDFSWDGPARQYLELYRGLEGHHHHHH”, for which the “soluble on expression in E. coli” value is “soluble”. As for “MYQHDIGKRSAKVKNVVERGAVKKFAEAIGDPNPIYWDEETGKRSRYGRNIAPPTFPRVFDYGVIEGLKLPAKGLIHGEQHFHYERPLFVGEELYCYAEVKDYFEKQSSMGLLGFLVIANNGEDADGNLIFTSTSTIMINEAVRKAMSV”, the entry is “soluble”; as for “MSLGEDSEGSGTSGISPGGNSVSEEVLKHRSMVEKYAKESDILDYVPILLAIIQVESGGTMEDVMQSSESAGLPPNSLSTEASIKQGCIYFASLVKSSKELGCDQDSIIQAYNYGGGYLNYVAKNGKKHSFTLAESFSKEKSGGQKVDYPNPIAIKENGGWRYNYGNMFYCLLVKQYLTTTQFDDKTVQGIFDEAFKYEGTAYVFGGSSPATGFDCSGLTQWCYAKVGLKLPRVAQDQYDVMTHIDLKDAKPGDLIFFHSTYDAGTYVTHVGIYAGENRMFHAGNPVGWTNLTESYWQQHLIGAGRYNEGHHHHHH”, “soluble”; as for “MFRIGQGFDVHEFAEGRPLIIGGITIPHEKGLIGHSDADVLLHTIADACLGAIAAGDIGKHFPDTDPAFKDADSAVLLQKVWEFVREQGYELGNLDCTIIAQKPKMAPHIESMRKRISELLETSIDNINVKATTTEKLGFTGREEGIASQAVVLLQKK”, “not soluble”.

As to “MLDLRFQRLHGKTTLTTRHHVGLLTVQRPFYPEEETCHLCLLHPPGGIVGGDELIINAIIDSDCHTLITMPGASKFYRSSGAQAHLQQNLTLCNNATLEWLPQDSIFFPGAHATLHTVFHLSSSSTLLAWDLLCLGRPVIGETFSHGTLANRLEIWVDGSPLLIERLHVANGELTCVARKPWVGTMLFYLGNETQLEDIREKLTPLENYAGATLTDGLLTVRFLSDDNLRCQ”, the “soluble on expression in E. coli” value is listed as “not soluble”.
